Experimental data taken from publication PMC11077089, “Molecular basis of A. thaliana KEOPS complex in biosynthesizing tRNA t^6A” (Nucleic Acids Research, 2024).
Numbering of substitutions follows the chain as printed. Names and notes keep the numbering of the source.

B1: A. thaliana KEOPS variant PCC1^R73D–KAE1–BUD32–CGI121 (complex, Arabidopsis thaliana)
chain 1: MKKKMIAIGFEGSANKIGVGIVTLDGTILANPRHTYITPPGHGFLPRETAHHHLDHVLPLVKSALETSQVTPEEIDCICYTKGPGMGAPLQVSAIVVRVLSQLWKKPIVAVNHCVAHIEMGRVVTGADDPVVLYVSGGNTQVIAYSEGRYRIFGETIDIAVGNCLDRFARVLKLSNDPSPGYNIEQLAKKGENFIDLPYAVKGMDVSFSGILSYIETTAEEKLKNNECTPADLCYSLQETVFAMLVEITERAMAHCDKKDVLIVGGVGCNERLQEMMRTMCSERDGKLFATDDRYCIDNGAMIAYTGLLAFVNGIETPIEDSTFTQRFRTDEVHAVWREKEAVLLGDKKVAAN
chain 2: MDCEENVRDESLVLIKQGAEARVFESTFAGRRSIVKERFSKKYRHPILDAKLTLKRLNAEARCMTKARKLGVCTPVLYAVDTLLHSLTLEYIEGVSVKDIFLEFGTNGVVEERLDDVAAQIGAAIAKLHDGGLAHGDLTTSNMLVRSGTNQLVLIDFGLSVTSTLPEDKAVDLYVLERALLSMHSSCGNVMDRILTAYRKSSKQWSATFNKLAQVRQRGRKRTMIG
chain 3: MKVFNLDRGNTLSVSLFSGVTNSKELLNSMLDGSLKLEVSFLNASLIPDIFPLLAAAQKALISKSRDSLSTRTLHSELVYNYSGSKHITESLKRCGISENTTYILAARFNASPVEMEEVAKLINGKEIDLEELKTHANQANILKHYKITSQELGISSLGDAIVCRIAARDAL
chain 4: MAATVPATTRSDQTWDFSCNLDVSFESEEHALIAYTSLAVDKELQPDKVRRVMSVSNNKLSVHFEAIEARLLDASFSAFVDVLTLATRTIQEFGQK
B2: A. thaliana KAE1–PCC1 subcomplex (complex, Arabidopsis thaliana)
chain 1: B1 chain 1
chain 2: B1 chain 4 with D73R
notes: AtKAE1, A. thaliana, as m1; AtPCC1, A. thaliana, as m4; Written as the KAE1–PCC1 heterodimer unit, which by SEC forms a dimer of itself; also called KP; AtKP; source: E. coli (Rosetta DE3 pLysS or BL21), co-expressed from pET26a–AtKAE1–PCC1-6His, purified (Ni-NTA, SEC)
B3: A. thaliana KEOPS complex (PCC1–KAE1–BUD32–CGI121) (complex, Arabidopsis thaliana)
chain 1: B1 chain 1
chain 2: B1 chain 2
chain 3: B1 chain 3
chain 4: B1 chain 4 with D73R
notes: AtKAE1, A. thaliana, as m1; AtBUD32, A. thaliana, as m2; AtCGI121, A. thaliana, as m3; AtPCC1, A. thaliana, as m4; Written as the four-subunit protomer; In solution the wild type is an eight-subunit dimer (K2B2C2P2) of this protomer, and it stood in that form in the pull-down from seedling lysate; also called AtKEOPS; KBCP; source: reconstituted from purified KAE1–PCC1 and BUD32–CGI121 (E. coli) …
B4: Arabidopsis thaliana PCC1 (natural protein)
chain: B1 chain 4 with D73R
notes: AtPCC1, A. thaliana, from chemically synthesized DNA; Forms a homodimer in the cryo-EM structure; also called AtPCC1; AT5G53045; source: E. coli (Rosetta DE3 pLysS or BL21), co-expressed with KAE1, purified (Ni-NTA, SEC)
B5: A. thaliana KAE1–BUD32–PCC1 subcomplex (complex, Arabidopsis thaliana)
chain 1: B1 chain 1
chain 2: B1 chain 2
chain 3: B1 chain 4 with D73R
notes: AtKAE1, A. thaliana; AtBUD32, A. thaliana; AtPCC1, A. thaliana; Written as the three-subunit unit, which by SEC forms a dimer of itself; also called KBP; AtKBP; source: recombinant, heterologous expression; copies: + +

How the values were obtained:
[1] = biological target: the molecule itself; assay: cell-based or functional assay
[2] = biological target: the molecule itself; assay: SEC; oligomeric state from elution volumes (Superdex 200 Increase 10/300 GL, HiLoad 16/600 Superdex 200) with reference to ScKEOPS (monomeric, 117.7 kDa) and standard calibration
[3] = biological target: the molecule itself; assay: cryo-EM structure; AtKEOPS mixed with tRNA^ArgCCU at 1:2; tRNA not seen; six subunits resolved (KAE1, PCC1, PCC1, KAE1, BUD32, CGI121); 3.2 Å after local refinement

Protein	stoichiometry N [2]	also measured
B1		t^6A-catalytic activity relative to AtKEOPS dimer [1]: ~25%
B2	2	
B3	2	
B4		binding result [3]: binds
B5	2	
